This is an account of results in US20250051437A1.

pKd: −log10 of the molar value.

Assay [1] deals with human cadherin-17 (CDH17), endogenously expressed on human cancer cell lines (LS513, SNU-C1, PaTu8988s, HPAF-II) (human) (UniProt Q12864). The experiment in a line: flow cytometry (iQue) on PATU8988S cells; secondary antibody only, background control.
Assay [2] concerns the target monkey (crab-eating macaque) CDH17 fused to moxGFP, overexpressed on HEK293T cells (monkey (crab-eating macaque)). Briefly: flow cytometry (BD C6), secondary antibody alone on HEK293T Macaque CDH17 moxGFP cells; on HEK293T Parental: 507.66. For orientation: Flow cytometry measures light scatter and fluorescence of single cells or particles in a stream.
In assay [3] the target is human cadherin-17 (CDH17), endogenously expressed on human cancer cell lines (LS513, SNU-C1, PaTu8988s, HPAF-II) (human) (UniProt Q12864). The experiment in a line: flow cytometry (iQue) on LS513 cells; secondary antibody only, background control.
The target of assay [4] is rat CDH17 fused to moxGFP, overexpressed on HEK293T cells (rat) (UniProt P55281). Briefly: flow cytometry (BD C6), secondary antibody alone on HEK293T Rat CDH17 moxGFP cells; on HEK293T Parental: 507.66.
Sequence of rat CDH17 fused to moxGFP, overexpressed on HEK293T cells (rat) (P55281 22-827): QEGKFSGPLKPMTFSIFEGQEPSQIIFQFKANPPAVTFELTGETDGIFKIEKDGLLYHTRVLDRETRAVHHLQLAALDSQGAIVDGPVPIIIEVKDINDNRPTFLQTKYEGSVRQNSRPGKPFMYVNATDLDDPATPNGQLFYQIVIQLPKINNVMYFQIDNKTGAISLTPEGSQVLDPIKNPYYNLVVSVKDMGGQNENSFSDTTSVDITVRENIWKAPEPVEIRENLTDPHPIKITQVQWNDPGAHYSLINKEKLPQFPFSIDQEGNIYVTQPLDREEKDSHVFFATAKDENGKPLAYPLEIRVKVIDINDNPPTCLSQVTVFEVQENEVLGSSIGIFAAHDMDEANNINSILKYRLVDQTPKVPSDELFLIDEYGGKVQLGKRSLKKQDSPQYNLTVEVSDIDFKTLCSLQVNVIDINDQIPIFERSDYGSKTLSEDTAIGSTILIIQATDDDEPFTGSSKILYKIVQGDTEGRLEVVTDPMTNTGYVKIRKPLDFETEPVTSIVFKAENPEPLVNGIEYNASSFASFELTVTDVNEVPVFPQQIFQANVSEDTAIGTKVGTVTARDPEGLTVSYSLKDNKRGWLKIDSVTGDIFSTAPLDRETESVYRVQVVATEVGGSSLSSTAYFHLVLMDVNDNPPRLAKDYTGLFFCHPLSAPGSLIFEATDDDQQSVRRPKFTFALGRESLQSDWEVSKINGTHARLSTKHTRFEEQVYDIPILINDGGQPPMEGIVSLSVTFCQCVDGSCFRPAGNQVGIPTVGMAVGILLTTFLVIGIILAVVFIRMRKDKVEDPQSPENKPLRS
Assay [5] addresses human CDH17-mGFP fusion protein overexpressed on HEK293T cells (clone G11) (human) (UniProt Q12864). Briefly: flow cytometry (BD C6), secondary antibody alone on HEK293T CDH17 mGFP G11 cells; on HEK293T Parental: 507.66.
Assay [6] deals with mouse CDH17-mGFP fusion protein overexpressed on HEK293T cells (mouse) (UniProt Q9R100). The experiment in a line: flow cytometry (BD C6), secondary antibody alone on HEK293T Mouse CDH17 mGFP cells; on HEK293T Parental: 507.66.
Sequence of mouse CDH17-mGFP fusion protein overexpressed on HEK293T cells (mouse) (Q9R100 26-827): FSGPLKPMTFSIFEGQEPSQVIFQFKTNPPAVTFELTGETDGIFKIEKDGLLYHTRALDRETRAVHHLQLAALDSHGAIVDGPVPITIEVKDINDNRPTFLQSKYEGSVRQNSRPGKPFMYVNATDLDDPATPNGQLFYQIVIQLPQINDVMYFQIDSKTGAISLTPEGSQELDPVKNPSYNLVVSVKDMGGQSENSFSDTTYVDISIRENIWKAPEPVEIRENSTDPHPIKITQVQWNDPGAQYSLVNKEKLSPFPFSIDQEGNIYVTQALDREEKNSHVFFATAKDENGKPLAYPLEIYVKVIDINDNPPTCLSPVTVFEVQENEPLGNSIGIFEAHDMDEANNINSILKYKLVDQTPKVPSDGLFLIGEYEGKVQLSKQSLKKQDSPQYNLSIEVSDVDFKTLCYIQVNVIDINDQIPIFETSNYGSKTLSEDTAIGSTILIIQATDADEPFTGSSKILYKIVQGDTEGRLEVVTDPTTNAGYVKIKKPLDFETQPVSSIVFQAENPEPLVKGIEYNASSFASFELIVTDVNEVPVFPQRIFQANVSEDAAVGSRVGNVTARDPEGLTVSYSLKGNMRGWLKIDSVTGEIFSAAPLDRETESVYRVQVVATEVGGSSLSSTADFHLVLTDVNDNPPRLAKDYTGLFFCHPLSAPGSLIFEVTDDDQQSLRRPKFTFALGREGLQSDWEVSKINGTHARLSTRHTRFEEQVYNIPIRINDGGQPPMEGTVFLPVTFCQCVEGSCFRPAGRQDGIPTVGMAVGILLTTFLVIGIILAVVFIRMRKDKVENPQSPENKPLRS
Assay [7] concerns the target human CDH17-mGFP fusion protein overexpressed on HEK293T cells (clone G11) (human) (UniProt Q12864). Briefly: flow cytometry (iQue) on HEK293T CDH17 mGFP clone G11 (human); secondary antibody only, background control.
Assay [8] addresses human cadherin-17 (CDH17), endogenously expressed on human cancer cell lines (LS513, SNU-C1, PaTu8988s, HPAF-II) (human) (UniProt Q12864). The experiment in a line: flow cytometry (iQue) on SNUC1 cells; secondary antibody only, background control.
Assay [9] has the same target. The experiment in a line: indirect flow cytometry (iQue) on LS513 cells (CDH17+); secondary antibody only, background control.
Another assay has as its target BT474 Cells. The experiment in a line: KinExA using BT474 Cells. (Kinetic exclusion samples the free partner from a solution-phase mixture.)

As for “fluorochrome-labelled anti-human IgG secondary antibody alone (2nd Ab only control)”, the Antibody Binding Activity by Flow iQue in assay [1] is 5930; in [3], 4900; in assay [7], 1960; in assay [8], 3900. Moreover, the FL4-H in [2] turned out to be 720; in [4], 633; in assay [5] it was 727; in assay [6] it was 740.
As for “AF647-anti-his tag 2° Ab (secondary antibody alone, control)”, the FL4-H in assay [9] worked out at 33200.
In general, pKd refers to the Kd on a negative log10 scale, so that one unit is a factor of ten. Herceptin (antibody) gave a pKd with BT474 Cells of 9.11.
